Experimental data reported in article PMC10808114, “Yeast 26S proteasome nuclear import is coupled to nucleus-specific degradation of the karyopherin adaptor protein Sts1” (Scientific Reports, 2024).

T1: GST-cleaved Kap95 (S. cerevisiae, UniProt Q06142 1-861)
T1 construct: Kap95 (karyopherin-beta), S. cerevisiae; also called purified Kap95; untagged Kap95; source: recombinant, purified, GST cleaved
T1 sequence (looked up): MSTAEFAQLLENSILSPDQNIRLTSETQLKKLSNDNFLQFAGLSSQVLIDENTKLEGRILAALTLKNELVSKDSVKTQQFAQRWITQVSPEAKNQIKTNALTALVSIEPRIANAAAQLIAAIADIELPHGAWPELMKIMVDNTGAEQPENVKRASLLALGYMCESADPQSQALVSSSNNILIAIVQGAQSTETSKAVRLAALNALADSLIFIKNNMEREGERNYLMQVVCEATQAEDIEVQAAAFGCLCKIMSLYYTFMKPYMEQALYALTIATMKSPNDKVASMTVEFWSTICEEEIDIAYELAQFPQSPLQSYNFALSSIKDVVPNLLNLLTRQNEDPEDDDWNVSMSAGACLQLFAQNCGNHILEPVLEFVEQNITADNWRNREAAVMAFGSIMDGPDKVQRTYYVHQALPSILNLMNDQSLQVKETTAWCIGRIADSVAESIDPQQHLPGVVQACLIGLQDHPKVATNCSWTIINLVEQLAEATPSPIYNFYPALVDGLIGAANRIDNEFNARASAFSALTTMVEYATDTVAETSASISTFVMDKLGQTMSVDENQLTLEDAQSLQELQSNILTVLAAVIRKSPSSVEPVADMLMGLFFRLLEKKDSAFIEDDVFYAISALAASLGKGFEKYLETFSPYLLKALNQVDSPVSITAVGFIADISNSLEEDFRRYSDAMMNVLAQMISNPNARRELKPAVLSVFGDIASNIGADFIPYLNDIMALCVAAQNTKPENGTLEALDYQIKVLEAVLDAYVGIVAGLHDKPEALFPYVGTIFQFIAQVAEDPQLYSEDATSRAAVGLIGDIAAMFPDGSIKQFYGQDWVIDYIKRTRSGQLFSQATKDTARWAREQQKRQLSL

B1: Srp1-6His (natural protein, S. cerevisiae, UniProt Q02821 1-542, looked up)
chain: MDNGTDSSTSKFVPEYRRTNFKNKGRFSADELRRRRDTQQVELRKAKRDEALAKRRNFIPPTDGADSDEEDESSVSADQQFYSQLQQELPQMTQQLNSDDMQEQLSATVKFRQILSREHRPPIDVVIQAGVVPRLVEFMRENQPEMLQLEAAWALTNIASGTSAQTKVVVDADAVPLFIQLLYTGSVEVKEQAIWALGNVAGDSTDYRDYVLQCNAMEPILGLFNSNKPSLIRTATWTLSNLCRGKKPQPDWSVVSQALPTLAKLIYSMDTETLVDACWAISYLSDGPQEAIQAVIDVRIPKRLVELLSHESTLVQTPALRAVGNIVTGNDLQTQVVINAGVLPALRLLLSSPKENIKKEACWTISNITAGNTEQIQAVIDANLIPPLVKLLEVAEYKTKKEACWAISNASSGGLQRPDIIRYLVSQGCIKPLCDLLEIADNRIIEVTLDALENILKMGEADKEARGLNINENADFIEKAGGMEKIFNCQQNENDKIYEKAYKIIETYFGEEEDAVDETMAPQNAGNTFGFGSNVNQQFNFN
notes: Srp1 (Kap60, karyopherin-alpha), S. cerevisiae; pET42b-based plasmid; also called karyopherin-α; Kap60; source: also co-expressed with GST-Sts1 in E. coli extract; not shown: 6His, C-terminal, kept

What was measured:
GST-cleaved Kap95 = biological target: T1, GST-cleaved Kap95; experiment: pull-down; GST-Sts1 immobilised on GSH beads, incubated with equimolar Srp1-6His and GST-cleaved Kap95, 4 °C, 2 h; PBS, 0.1% Tween-20, 0.2 mM DTT, 0.2 mM PMSF; without Ran or then with four-fold molar excess of 6His-Gsp1GDP (complex largely intact); SDS-PAGE and protein staining; settings: both partners purified
Srp1-6His = biological target: B1; experiment: as above; settings: both partners purified

Row | Binder | binding result (GST-cleaved Kap95) | binding result (Srp1-6His)
1 | full-length GST-Sts1 (natural protein, S. cerevisiae, UniProt P38637 1-319, looked up, Sts1, S. cerevisiae, full length; also called FL; not shown: GST, N-terminal, kept) MMGFEWGFKPSSKITQSTVSSQGTGNVMIPTAGVKQKRRYANEEQEEEELPRNKNVMKYGGVSKRRPQPGSLIRGQPLPLQRGMELMNKNQLQQLLVDLMTKHPEIQQSVHTRVIGLDFSIQKCLDMLKQKSEAVYQSIPYNRSYESNKLDDYAFVRMKPQILEFLNCLVDFILDNIPPRLENLHASLKFLDICTELVIKLPRFELASNNYYYDKCIEQLSHVWCTLIEHVARDRIILLADNSSVWKSHMTRLQVYNEHSNGLLERPLQLFKSLDMGSPSAASSSTLSLQESIIYHHDTMTANENNNNSGSAATDSPFN | binds | binds
2 | B1 | binds | 
